Measured values: patent publication US20190352359A1 (IMMATICS BIOTECHNOLOGIES, published 2019)

B1: MROH2A-004 (peptide)
peptide: SYPKELMKF
notes: also called SYPKELMKF
B2: DNAH17-003 (peptide)
peptide: SYLWTDNLQEF
notes: also called SYLWTDNLQEF
B3: EML-002 (peptide)
peptide: VYKEDLPQL
notes: also called VYKEDLPQL
B4: MSX-001 (peptide)
peptide: QYLSIAERAEF
notes: also called QYLSIAERAEF
B5: KBTBD8-005 (peptide)
peptide: VLQGEFFLF
notes: also called VLQGEFFLF
B6: LAMA3-002 (peptide)
peptide: GYFGNPQKF
notes: also called GYFGNPQKF
B7: GABRP-007 (peptide)
peptide: YTIERYFTL
notes: also called YTIERYFTL
B8: IL9R-001 (peptide)
peptide: RYTGQWSEW
notes: also called RYTGQWSEW
B9: SLC5A4-001 (peptide)
peptide: AYLKLLPMF
notes: also called AYLKLLPMF
B10: CAPN6-003 (peptide)
peptide: NYVLVPTMF
notes: also called NYVLVPTMF
B11: BTBD16-004 (peptide)
peptide: TYSKTIALYGF
notes: also called TYSKTIALYGF
B12: TGM4-003 (peptide)
peptide: TYINSLAIL
notes: also called TYINSLAIL
B13: OR51E2-003 (peptide)
peptide: IGLSVVHRF
notes: also called IGLSVVHRF
B14: GABRP-006 (peptide)
peptide: TYVPSTFLVVL
notes: also called TYVPSTFLVVL
B15: DCX-001 (peptide)
peptide: VYAVSSDRF
notes: also called VYAVSSDRF
B16: BTBD16-002 (peptide)
peptide: LYGFFFKI
notes: also called LYGFFFKI
B17: FCRL2-004 (peptide)
peptide: YFCSTKGQLF
notes: also called YFCSTKGQLF
B18: POT-002 (peptide)
peptide: LQPQPQLFFSF
notes: also called LQPQPQLFFSF
B19: CLEC17-005 (peptide)
peptide: RWLDGSPVTL
notes: also called RWLDGSPVTL
B20: GABRP-005 (peptide)
peptide: TYVPSTFLV
notes: also called TYVPSTFLV
B21: OXTR-002 (peptide)
peptide: VYIVPVIVL
notes: also called VYIVPVIVL
B22: LOXL4-003 (peptide)
peptide: AWSPPATLFLF
notes: also called AWSPPATLFLF
B23: KLHDC7B-006 (peptide)
peptide: RYSPVKDAW
notes: also called RYSPVKDAW
B24: HEPHL-004 (peptide)
peptide: RYFDENIQKF
notes: also called RYFDENIQKF
B25: SLC45A3-004 (peptide)
peptide: IYFATQVVF
notes: also called IYFATQVVF
B26: F5-005 (peptide)
peptide: IYYSHENLI
notes: also called IYYSHENLI
B27: ERV-002 (peptide)
peptide: KWFDSHIPRW
notes: also called KWFDSHIPRW
B28: AR-002 (peptide)
peptide: YQSRDYYNF
notes: also called YQSRDYYNF
B29: CDK6-007 (peptide)
peptide: SYATPVDLW
notes: also called SYATPVDLW
B30: PLA2G2D-001 (peptide)
peptide: IYKDYYRYNF
notes: also called IYKDYYRYNF
B31: PTP-042 (peptide)
peptide: VFPLVTPLL
notes: also called VFPLVTPLL
B32: ESR1-008 (peptide)
peptide: NYPEGAAYEF
notes: also called NYPEGAAYEF
B33: HMCN1-011 (peptide)
peptide: LYIDKGQYL
notes: also called LYIDKGQYL
B34: MAGEB1-001 (peptide)
peptide: KYKDHFTEI
notes: also called KYKDHFTEI
B35: UGT1A3-002 (peptide)
peptide: KYLSIPTVFF
notes: also called KYLSIPTVFF
B36: FLT3-010 (peptide)
peptide: FYKLIQNGF
notes: also called FYKLIQNGF
B37: DLX5-003 (peptide)
peptide: SYLENSASW
notes: also called SYLENSASW
B38: CYP1A1-002 (peptide)
peptide: RYLPNPSLNAF
notes: also called RYLPNPSLNAF
B39: KISS1R-003 (peptide)
peptide: LYAFLGSHF
notes: also called LYAFLGSHF
B40: GABRP-004 (peptide)
peptide: NYTRLVLQF
notes: also called NYTRLVLQF
B41: SPER-001 (peptide)
peptide: PYFSPSASF
notes: also called PYFSPSASF
B42: COL24-002 (peptide)
peptide: SWHKATFLF
notes: also called SWHKATFLF
B43: SCGB2A1-001 (peptide)
peptide: VYDSIWCNM
notes: also called VYDSIWCNM
B44: SYT12-001 (peptide)
peptide: SYLPTAERL
notes: also called SYLPTAERL
B45: FCRL5-004 (peptide)
peptide: FYHEDMPLW
notes: also called FYHEDMPLW
B46: NPFFR2-002 (peptide)
peptide: IYIYPFAHW
notes: also called IYIYPFAHW
B47: QRFPR-002 (peptide)
peptide: ALFAVCWAPF
notes: also called ALFAVCWAPF
B48: TRDV3-001 (peptide)
peptide: IRPDYSFQF
notes: also called IRPDYSFQF
B49: F5-007 (peptide)
peptide: SIYPHGVTF
notes: also called SIYPHGVTF
B50: ANO7-001 (peptide)
peptide: FLPRAYYRW
notes: also called FLPRAYYRW
B51: RFX8-001 (peptide)
peptide: YLKSVQLF
notes: also called YLKSVQLF
B52: COL11A1-005 (peptide)
peptide: RPEKVFVF
notes: also called RPEKVFVF
B53: COL10-001 (peptide)
peptide: MLPQIPFLLL
notes: also called MLPQIPFLLL
B54: GLYATL3-001 (peptide)
peptide: YIANLISCF
notes: also called YIANLISCF
B55: SLC6A3-001 (peptide)
peptide: FMVIAGMPLF
notes: also called FMVIAGMPLF
B56: FCRL5-005 (peptide)
peptide: ILQAPLSVF
notes: also called ILQAPLSVF
B57: ESR-001 (peptide)
peptide: VWSCEGCKAF
notes: also called VWSCEGCKAF
B58: ANO7-005 (peptide)
peptide: RRYFGEKVAL
notes: also called RRYFGEKVAL
B59: FCRL5-006 (peptide)
peptide: LQPPWTTVF
notes: also called LQPPWTTVF
B60: WISP3-002 (peptide)
peptide: VFQPNPLF
notes: also called VFQPNPLF
B61: MMP13-004 (peptide)
peptide: EYNVFPRTL
notes: also called EYNVFPRTL
B62: SMC1B-002 (peptide)
peptide: IFQHFCEEI
notes: also called IFQHFCEEI
B63: LAMC2-018 (peptide)
peptide: DYSKQALSL
notes: also called DYSKQALSL
B64: PAE-002 (peptide)
peptide: IMQGFIRAF
notes: also called IMQGFIRAF
B65: ANO7-004 (peptide)
peptide: MHRTWRETF
notes: also called MHRTWRETF
B66: CYP4Z-002 (peptide)
peptide: ELMAHPFLL
notes: also called ELMAHPFLL

The binders below were run against T1, HLA-A*24 (assay: UV peptide-exchange ELISA (anti-b2m); yield grade ++++ = >75%).
T1 construct: Monomers captured on streptavidin plates; also called peptide-receptive MHC molecules; MHC complexes
Description: (§1) Candidate peptides for T cell based therapies according to the present invention were further tested for their MHC binding capacity (affinity). The individual peptide-MHC complexes were produced by UV-ligand exchange, where a UV-sensitive peptide is cleaved upon UV-irradiation, and exchanged with the peptide of interest as analyzed. Only peptide candidates that can effectively bind and stabilize the peptide-receptive MHC molecules prevent dissociation of the MHC complexes. To determine the yield of the exchange reaction, an ELISA was performed based on the detection of the light chain (p2m) of stabilized MHC complexes. The assay was performed as generally described in Rodenko et al. (Rodenko et al., 2006)
(§2) 96 well MAXISorp plates (NUNC) were coated over night with 2 ug/ml streptavidin in PBS at room temperature, washed 4× and blocked for 1 h at 37° C. in 2% BSA containing blocking buffer. Refolded HLA-A*02:01/MLA-001 monomers served as standards, covering the range of 15-500 ng/ml. Peptide-MHC monomers of the UV-exchange reaction were diluted 100-fold in blocking buffer. Samples were incubated for 1 h at 37° C., washed four times, incubated with 2 ug/ml HRP conjugated anti-β2m for 1h at 37° C., washed again and detected with TMB solution that is stopped with […]. Absorption was measured at 450 nm. Candidate peptides that show a high exchange yield (preferably higher than 50%, most preferred higher than 75%) are generally preferred for a generation and production of antibodies or fragments thereof, and/or T cell receptors or fragments thereof, as they show sufficient avidity to the MHC molecules and prevent dissociation of the MHC complexes.
For B1, the peptide exchange yield was > 75%.
B2 was tested, and the peptide exchange yield was > 75%.
With B3 the peptide exchange yield was > 75%.
For B4, the peptide exchange yield was > 75%.
For B5, the peptide exchange yield was > 75%.
B6 was tested, and the peptide exchange yield was > 75%.
For B7, the peptide exchange yield was > 75%.
In the case of B8, the peptide exchange yield is reported as > 75%.
In the case of B9, the peptide exchange yield is reported as > 75%.
For B10, the peptide exchange yield was > 75%.
B11 was tested, and the peptide exchange yield was > 75%.
For B12, the peptide exchange yield was > 75%.
B13 was tested, and the peptide exchange yield was > 75%.
B14 was tested, and the peptide exchange yield was > 75%.
In the case of B15, the peptide exchange yield is reported as > 75%.
B16 was tested, and the peptide exchange yield was > 75%.
In the case of B17, the peptide exchange yield is reported as > 75%.
In the case of B18, the peptide exchange yield is reported as > 75%.
In the case of B19, the peptide exchange yield is reported as > 75%.
B20 was tested, and the peptide exchange yield was > 75%.
B21 was tested, and the peptide exchange yield was > 75%.
With B22 the peptide exchange yield was > 75%.
In the case of B23, the peptide exchange yield is reported as > 75%.
In the case of B24, the peptide exchange yield is reported as > 75%.
With B25 the peptide exchange yield was > 75%.
B26 was tested, and the peptide exchange yield was > 75%.
B27 was tested, and the peptide exchange yield was > 75%.
For B28, the peptide exchange yield was > 75%.
In the case of B29, the peptide exchange yield is reported as > 75%.
In the case of B30, the peptide exchange yield is reported as > 75%.
In the case of B31, the peptide exchange yield is reported as > 75%.
B32 was tested, and the peptide exchange yield was > 75%.
In the case of B33, the peptide exchange yield is reported as > 75%.
B34 was tested, and the peptide exchange yield was > 75%.
With B35 the peptide exchange yield was > 75%.
With B36 the peptide exchange yield was > 75%.
With B37 the peptide exchange yield was > 75%.
In the case of B38, the peptide exchange yield is reported as > 75%.
With B39 the peptide exchange yield was > 75%.
In the case of B40, the peptide exchange yield is reported as > 75%.
B41 was tested, and the peptide exchange yield was > 75%.
With B42 the peptide exchange yield was > 75%.
In the case of B43, the peptide exchange yield is reported as > 75%.
With B44 the peptide exchange yield was > 75%.
B45 was tested, and the peptide exchange yield was > 75%.
In the case of B46, the peptide exchange yield is reported as > 75%.

These binders were tested against T1, HLA-A*24 (assay: UV peptide-exchange ELISA (anti-b2m); yield grade ++ = >20%).
Description: as §1, §2
B47 was tested, and the peptide exchange yield was 20 to 50%.
In the case of B48, the peptide exchange yield is reported as 20 to 50%.
B49 showed a peptide exchange yield of 20 to 50%.
B50 was tested, and the peptide exchange yield was 20 to 50%.
B51 gave a peptide exchange yield of 20 to 50%.
In the case of B52, the peptide exchange yield is reported as 20 to 50%.
With B53 the peptide exchange yield was 20 to 50%.
In the case of B54, the peptide exchange yield is reported as 20 to 50%.
For B55, the peptide exchange yield was 20 to 50%.
B56 was tested, and the peptide exchange yield was 20 to 50%.
B57 gave a peptide exchange yield of 20 to 50%.
Work on B58 yielded a peptide exchange yield of 20 to 50%.
B59 showed a peptide exchange yield of 20 to 50%.
Binder B60 has a peptide exchange yield of 20 to 50%.
With B61 the peptide exchange yield was 20 to 50%.
B62 gave a peptide exchange yield of 20 to 50%.
Work on B63 yielded a peptide exchange yield of 20 to 50%.
For B64, the peptide exchange yield was 20 to 50%.
With B65 the peptide exchange yield was 20 to 50%.
With B66 the peptide exchange yield was 20 to 50%.
